Source: paper PMC7435236, “Self‐Assembling Glycopeptide Conjugate as a Versatile Platform for Mimicking Complex Polysaccharides” (Advanced Science, 2020)

Test system: splenocytes from immunized mice
Assay: IFN‐γ production by splenocytes of immunized mice after in vitro re-stimulation (ELISA)
Type: in vivo, C57BL/6 mice
Conditions: spleen cells from vaccinated mice (NPs plus OVA, or OVA only), OVA stimulation 48 h in vitro
Protocol: To further investigate the activation ability of mannosylated nanoparticles, the spleen cells from mice that vaccinated for 4 weeks with mannosylated NPs plus OVA (group 1) and OVA only (group 4) were stimulated by OVA for 48 h in vitro. The expression levels of IFN‐γ in cell media with or without OVA stimulation was measured by ELISA (Figure 6c).
After immunization, the spleens of the immunized mice were removed under sterile conditions and suspended in sterile cold PBS. After centrifugation, the cell suspension was diluted to 2 × 10^6 cells mL^−1 in RPMI 1640 supplemented with 10% FBS, 100 µg mL^−1 streptomycin and 100 unit mL^−1 penicillin, and cultured overnight. After removal of the non‐adherent cells, the medium was changed, and the OVA protein in buffer and PBS buffer only were added to different wells, respectively, and cultured for 48 h. The culture media was then collected and diluted for the ELISA tests. Following the instructions of ELISA kit, the samples, anti‐IFN‐γ antibody, and chromogenic substrates were added in order. The corresponding OD450 was measured by Multiskan GO (Thermo Scientific) microplate reader.

B1: OVA: Ovalbumin, model antigen for evaluation of vaccine adjuvants (protein, UniProt P01012 2-386, looked up)
Ovalbumin: GSIGAASMEFCFDVFKELKVHHANENIFYCPIAIMSALAMVYLGAKDSTRTQINKVVRFDKLPGFGDSIEAQCGTSVNVHSSLRDILNQITKPNDVYSFSLASRLYAEERYPILPEYLQCVKELYRGGLEPINFQTAADQARELINSWVESQTNGIIRNVLQPSSVDSQTAMVLVNAIVFKGLWEKAFKDEDTQAMPFRVTEQESKPVQMMYQIGLFRVASMASEKMKILELPFASGTMSMLVLLPDEVSGLEQLESIINFEKLTEWTSSNVMEERKIKVYLPRMKMEEKYNLTSVLMAMGITDVFSSSANLSGISSAESLKISQAVHAAHAEINEAGREVVGSAEAGVDAASVSEEFRADHPFLFCIKHIATNAVLFFGRCVSP
- IFN‐γ expression in cell media: Upregulation of IFN‐γ
